# Test results reported in paper PMC7316778 (Nature Communications, 2020).
# What was measured:
# Assay in all cases: PamChip microarray peptide phosphorylation
# FES^WT = molecular target: T1, FES^WT (Homo sapiens, UniProt P07332); assay type: biochemical; conditions: peptide substrate phosphorylated by FES - WT
# T1 construct: human FES cDNA encoding residues 448–822 or human FER cDNA encoding residues 448–820 was amplified by PCR; made in house; host or cells: E. coli BL21(DE3), co-expressing YopH phosphatase
# T1 sequence (P07332 448-822): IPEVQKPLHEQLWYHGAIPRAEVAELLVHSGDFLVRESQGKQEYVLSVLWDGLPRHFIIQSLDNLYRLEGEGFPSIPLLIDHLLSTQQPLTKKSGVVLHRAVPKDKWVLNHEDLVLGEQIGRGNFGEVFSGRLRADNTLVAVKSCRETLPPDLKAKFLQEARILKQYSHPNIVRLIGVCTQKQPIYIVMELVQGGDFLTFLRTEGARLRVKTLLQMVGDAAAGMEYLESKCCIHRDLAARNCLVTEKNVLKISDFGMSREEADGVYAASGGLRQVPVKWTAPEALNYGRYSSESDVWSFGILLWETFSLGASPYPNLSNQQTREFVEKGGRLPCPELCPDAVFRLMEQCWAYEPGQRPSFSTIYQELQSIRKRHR
# FGR = FGR (Homo sapiens, UniProt P09769); conditions: peptide substrate phosphorylated by FGR
# CSK = CSK (Homo sapiens, UniProt P41240); conditions: peptide substrate phosphorylated by CSK
# Chain of CSK (P41240 whole entry): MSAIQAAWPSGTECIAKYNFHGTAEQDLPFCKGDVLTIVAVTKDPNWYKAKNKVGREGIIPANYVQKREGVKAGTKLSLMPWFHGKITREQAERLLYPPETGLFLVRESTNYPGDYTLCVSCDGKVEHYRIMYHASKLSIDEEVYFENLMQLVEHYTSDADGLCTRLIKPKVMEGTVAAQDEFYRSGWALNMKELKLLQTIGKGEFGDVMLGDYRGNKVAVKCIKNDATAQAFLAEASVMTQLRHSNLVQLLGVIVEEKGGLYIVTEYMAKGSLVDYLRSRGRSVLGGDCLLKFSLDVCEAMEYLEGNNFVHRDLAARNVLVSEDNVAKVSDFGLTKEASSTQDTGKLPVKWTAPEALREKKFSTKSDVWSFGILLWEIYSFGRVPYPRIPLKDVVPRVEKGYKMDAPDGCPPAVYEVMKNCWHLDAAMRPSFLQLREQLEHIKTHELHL
# ABL1 = ABL1 (Homo sapiens, UniProt P00519); conditions: peptide substrate phosphorylated by ABL1
# Chain of ABL1 (P00519 whole entry): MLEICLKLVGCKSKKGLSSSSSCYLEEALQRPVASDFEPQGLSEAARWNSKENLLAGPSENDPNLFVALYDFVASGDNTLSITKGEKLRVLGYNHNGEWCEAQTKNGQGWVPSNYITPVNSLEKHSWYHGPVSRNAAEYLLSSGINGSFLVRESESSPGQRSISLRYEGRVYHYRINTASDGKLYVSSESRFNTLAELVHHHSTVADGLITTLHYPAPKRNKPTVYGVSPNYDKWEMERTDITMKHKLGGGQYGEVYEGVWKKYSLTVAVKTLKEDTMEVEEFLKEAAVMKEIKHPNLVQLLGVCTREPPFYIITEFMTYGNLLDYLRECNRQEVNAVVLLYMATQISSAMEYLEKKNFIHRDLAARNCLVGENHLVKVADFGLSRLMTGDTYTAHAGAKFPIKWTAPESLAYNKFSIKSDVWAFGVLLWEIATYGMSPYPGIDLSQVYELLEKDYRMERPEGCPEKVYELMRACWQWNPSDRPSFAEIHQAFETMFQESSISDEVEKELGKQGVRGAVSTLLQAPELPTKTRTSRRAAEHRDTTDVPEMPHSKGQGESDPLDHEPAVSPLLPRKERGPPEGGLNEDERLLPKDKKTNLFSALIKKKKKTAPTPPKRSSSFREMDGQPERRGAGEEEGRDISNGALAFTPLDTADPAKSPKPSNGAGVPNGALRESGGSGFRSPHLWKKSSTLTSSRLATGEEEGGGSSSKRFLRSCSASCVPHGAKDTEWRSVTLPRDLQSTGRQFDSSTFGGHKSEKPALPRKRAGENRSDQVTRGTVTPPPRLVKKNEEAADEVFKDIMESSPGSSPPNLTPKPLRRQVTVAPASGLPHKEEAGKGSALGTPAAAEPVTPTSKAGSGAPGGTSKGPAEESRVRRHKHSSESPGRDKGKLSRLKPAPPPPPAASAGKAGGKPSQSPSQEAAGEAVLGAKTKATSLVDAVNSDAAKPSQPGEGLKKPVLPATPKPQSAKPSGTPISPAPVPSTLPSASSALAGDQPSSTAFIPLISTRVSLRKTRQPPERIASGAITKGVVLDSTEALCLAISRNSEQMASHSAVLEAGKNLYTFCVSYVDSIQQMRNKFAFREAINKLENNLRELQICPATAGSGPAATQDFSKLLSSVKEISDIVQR
# LYN = LYN (Homo sapiens, UniProt P07948); conditions: peptide substrate phosphorylated by LYN
# Chain of LYN (P07948 whole entry): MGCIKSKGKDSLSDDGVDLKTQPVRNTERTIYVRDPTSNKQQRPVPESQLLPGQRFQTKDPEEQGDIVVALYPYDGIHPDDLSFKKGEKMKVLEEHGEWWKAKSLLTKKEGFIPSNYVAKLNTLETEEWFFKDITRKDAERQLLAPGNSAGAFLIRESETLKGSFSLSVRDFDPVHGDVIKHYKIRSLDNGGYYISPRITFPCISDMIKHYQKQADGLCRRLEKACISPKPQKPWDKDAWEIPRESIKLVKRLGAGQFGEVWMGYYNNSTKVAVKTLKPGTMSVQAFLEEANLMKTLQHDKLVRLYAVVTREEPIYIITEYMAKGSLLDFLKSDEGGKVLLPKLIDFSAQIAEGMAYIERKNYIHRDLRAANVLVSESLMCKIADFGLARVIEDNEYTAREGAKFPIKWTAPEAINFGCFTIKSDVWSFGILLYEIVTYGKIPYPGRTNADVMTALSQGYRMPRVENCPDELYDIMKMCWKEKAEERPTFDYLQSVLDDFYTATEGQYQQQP
# SYK = SYK (Homo sapiens, UniProt P43405); conditions: peptide substrate phosphorylated by SYK
Substance,Relative phosphorylation (% of highest signal) (FES^WT),Relative phosphorylation (% of highest signal) (FGR),Relative phosphorylation (% of highest signal) (CSK),Relative phosphorylation (% of highest signal) (ABL1),Relative phosphorylation (% of highest signal) (LYN),Relative phosphorylation (% of highest signal) (SYK)
"AMPE_5_17 (EREGSKRYCIQTK; UniProt Q07075 5-17, looked up, fragment)",-0.1 % of highest signal,-1.5 % of highest signal,-0.745 % of highest signal,-0.436 % of highest signal,0.114 % of highest signal,-1.8 % of highest signal
ART_004_EAIYAAPFAKKKXC,5.0 % of highest signal,8.3 % of highest signal,17.0 % of highest signal,100.0 % of highest signal,2.6 % of highest signal,3.2 % of highest signal
"DDR1_506_518 (LLLSNPAYRLLLA; UniProt Q08345 506-518, looked up, fragment)",-0.4 % of highest signal,-6.2 % of highest signal,-1.7 % of highest signal,-1.4 % of highest signal,-1.0 % of highest signal,-3.9 % of highest signal
"EFS_246_258_Y253F (GGTDEGIFDVPLL; UniProt O43281 246-258, looked up, fragment Y253F)",-0.634 % of highest signal,-4.8 % of highest signal,-0.6 % of highest signal,-0.5 % of highest signal,-0.264 % of highest signal,-1.2 % of highest signal
"EPHA2_581_593 (QLKPLKTYVDPHT; UniProt P29317 581-593, looked up, fragment)",-0.0404 % of highest signal,-3.2 % of highest signal,-0.569 % of highest signal,-0.273 % of highest signal,-0.186 % of highest signal,-1.0 % of highest signal
"EPHA4_921_933 (QAIKMDRYKDNFT; UniProt P54764 921-933, looked up, fragment)",-0.348 % of highest signal,-1.7 % of highest signal,-0.535 % of highest signal,-0.327 % of highest signal,-0.126 % of highest signal,-0.4 % of highest signal
"EPOR_361_373 (SEHAQDTYLVLDK; UniProt P19235 361-373, looked up, fragment)",3.3 % of highest signal,2.0 % of highest signal,2.0 % of highest signal,0.0544 % of highest signal,1.2 % of highest signal,12.7 % of highest signal
"MBP_259_271 (FGYGGRASDYKSA; UniProt P02686 259-271, looked up, fragment)",-0.152 % of highest signal,0.634 % of highest signal,-0.0622 % of highest signal,-0.0479 % of highest signal,-0.152 % of highest signal,0.9 % of highest signal
